Data as given in US12679878B2, “CRF2 receptor agonists and their use in therapy” (SANOFI, priority 2020, dated 2026).
Starred links: 1 amine or outer side, 2 acyl side, 3 side chain; linkers in the order of their positions; H or OH if unused. Non-standard residues stand in square brackets, D forms with d. Groups on a side chain read outwards from the residue. No end group written: not given here. *: point of attachment. C18 diacid = O=C(O)CCCCCCCCCCCCCCCCC(=O)*; γGlu = O=C(O)[C@H](CCC(=O)[*:2])N[*:1]; Palmitoyl = CCCCCCCCCCCCCCCC(=O)*; AEEA = NCCOCCOCC(=O)O; Aib = CC(C)(N)C(=O)O

T1: CRF1R receptor (anti-target) (UniProt P34998 24-415, limits assumed)
T1 sequence (looked up): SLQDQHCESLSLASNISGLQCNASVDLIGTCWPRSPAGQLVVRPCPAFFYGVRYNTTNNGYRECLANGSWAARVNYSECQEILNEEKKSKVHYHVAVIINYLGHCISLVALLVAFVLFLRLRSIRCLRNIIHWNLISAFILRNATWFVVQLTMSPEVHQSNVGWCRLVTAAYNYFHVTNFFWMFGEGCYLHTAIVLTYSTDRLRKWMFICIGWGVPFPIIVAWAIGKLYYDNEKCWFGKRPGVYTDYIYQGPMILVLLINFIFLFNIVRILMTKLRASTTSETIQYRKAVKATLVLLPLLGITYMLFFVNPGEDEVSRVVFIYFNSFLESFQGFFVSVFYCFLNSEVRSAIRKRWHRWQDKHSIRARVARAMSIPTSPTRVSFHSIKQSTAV

B1: peptide of SEQ ID NO: 89 (peptide)
peptide: IVLSLDVPIKLK([AEEA-AEEA-γGlu-C18 diacid])QILLKQERQKKQREQAKTN[Aib]QILAQV-NH2
modifications: N-terminus assumed
SMILES: CC[C@H](C)[C@H](N)C(=O)N[C@H](C(=O)N[C@@H](CC(C)C)C(=O)N[C@@H](CO)C(=O)N[C@@H](CC(C)C)C(=O)N[C@@H](CC(=O)O)C(=O)N[C@H](C(=O)N1CCC[C@H]1C(=O)N[C@H](C(=O)N[C@@H](CCCCN)C(=O)N[C@@H](CC(C)C)C(=O)N[C@@H](CCCCNC(=O)COCCOCCNC(=O)COCCOCCNC(=O)CC[C@H](NC(=O)CCCCCCCCCCCCCCCCC(=O)O)C(=O)O)C(=O)N[C@@H](CCC(N)=O)C(=O)N[C@H](C(=O)N[C@@H](CC(C)C)C(=O)N[C@@H](CC(C)C)C(=O)N[C@@H](CCCCN)C(=O)N[C@@H](CCC(N)=O)C(=O)N[C@@H](CCC(=O)O)C(=O)N[C@@H](CCCNC(=N)N)C(=O)N[C@@H](CCC(N)=O)C(=O)N[C@@H](CCCCN)C(=O)N[C@@H](CCCCN)C(=O)N[C@@H](CCC(N)=O)C(=O)N[C@@H](CCCNC(=N)N)C(=O)N[C@@H](CCC(=O)O)C(=O)N[C@@H](CCC(N)=O)C(=O)N[C@@H](C)C(=O)N[C@@H](CCCCN)C(=O)N[C@H](C(=O)N[C@@H](CC(N)=O)C(=O)NC(C)(C)C(=O)N[C@@H](CCC(N)=O)C(=O)N[C@H](C(=O)N[C@@H](CC(C)C)C(=O)N[C@@H](C)C(=O)N[C@@H](CCC(N)=O)C(=O)N[C@H](C(N)=O)C(C)C)[C@@H](C)CC)[C@@H](C)O)[C@@H](C)CC)[C@@H](C)CC)C(C)C)C(C)C
B2: peptide of SEQ ID NO: 30 (peptide)
peptide: IVLSLD[dV]PTKLK([γGlu-Palmitoyl])KKLLKQERKRKEREQAEKAARILERV-NH2
modifications: N-terminus assumed
SMILES: CCCCCCCCCCCCCCCC(=O)N[C@@H](CCC(=O)NCCCC[C@H](NC(=O)[C@H](CC(C)C)NC(=O)[C@H](CCCCN)NC(=O)[C@@H](NC(=O)[C@@H]1CCCN1C(=O)[C@H](NC(=O)[C@H](CC(=O)O)NC(=O)[C@H](CC(C)C)NC(=O)[C@H](CO)NC(=O)[C@H](CC(C)C)NC(=O)[C@@H](NC(=O)[C@@H](N)[C@@H](C)CC)C(C)C)C(C)C)[C@@H](C)O)C(=O)N[C@@H](CCCCN)C(=O)N[C@@H](CCCCN)C(=O)N[C@@H](CC(C)C)C(=O)N[C@@H](CC(C)C)C(=O)N[C@@H](CCCCN)C(=O)N[C@@H](CCC(N)=O)C(=O)N[C@@H](CCC(=O)O)C(=O)N[C@@H](CCCNC(=N)N)C(=O)N[C@@H](CCCCN)C(=O)N[C@@H](CCCNC(=N)N)C(=O)N[C@@H](CCCCN)C(=O)N[C@@H](CCC(=O)O)C(=O)N[C@@H](CCCNC(=N)N)C(=O)N[C@@H](CCC(=O)O)C(=O)N[C@@H](CCC(N)=O)C(=O)N[C@@H](C)C(=O)N[C@@H](CCC(=O)O)C(=O)N[C@@H](CCCCN)C(=O)N[C@@H](C)C(=O)N[C@@H](C)C(=O)N[C@@H](CCCNC(=N)N)C(=O)N[C@H](C(=O)N[C@@H](CC(C)C)C(=O)N[C@@H](CCC(=O)O)C(=O)N[C@@H](CCCNC(=N)N)C(=O)N[C@H](C(N)=O)C(C)C)[C@@H](C)CC)C(=O)O
B3: peptide of SEQ ID NO: 88 (peptide)
peptide: IVLSLDVPIKLK([AEEA-AEEA-γGlu-C18 diacid])QILLKQERQKKQREKAKTN[Aib]QILAQV-NH2
modifications: N-terminus assumed
SMILES: CC[C@H](C)[C@H](N)C(=O)N[C@H](C(=O)N[C@@H](CC(C)C)C(=O)N[C@@H](CO)C(=O)N[C@@H](CC(C)C)C(=O)N[C@@H](CC(=O)O)C(=O)N[C@H](C(=O)N1CCC[C@H]1C(=O)N[C@H](C(=O)N[C@@H](CCCCN)C(=O)N[C@@H](CC(C)C)C(=O)N[C@@H](CCCCNC(=O)COCCOCCNC(=O)COCCOCCNC(=O)CC[C@H](NC(=O)CCCCCCCCCCCCCCCCC(=O)O)C(=O)O)C(=O)N[C@@H](CCC(N)=O)C(=O)N[C@H](C(=O)N[C@@H](CC(C)C)C(=O)N[C@@H](CC(C)C)C(=O)N[C@@H](CCCCN)C(=O)N[C@@H](CCC(N)=O)C(=O)N[C@@H](CCC(=O)O)C(=O)N[C@@H](CCCNC(=N)N)C(=O)N[C@@H](CCC(N)=O)C(=O)N[C@@H](CCCCN)C(=O)N[C@@H](CCCCN)C(=O)N[C@@H](CCC(N)=O)C(=O)N[C@@H](CCCNC(=N)N)C(=O)N[C@@H](CCC(=O)O)C(=O)N[C@@H](CCCCN)C(=O)N[C@@H](C)C(=O)N[C@@H](CCCCN)C(=O)N[C@H](C(=O)N[C@@H](CC(N)=O)C(=O)NC(C)(C)C(=O)N[C@@H](CCC(N)=O)C(=O)N[C@H](C(=O)N[C@@H](CC(C)C)C(=O)N[C@@H](C)C(=O)N[C@@H](CCC(N)=O)C(=O)N[C@H](C(N)=O)C(C)C)[C@@H](C)CC)[C@@H](C)O)[C@@H](C)CC)[C@@H](C)CC)C(C)C)C(C)C
B4: peptide of SEQ ID NO: 96 (peptide)
peptide: IVLSLDVPIKLK([AEEA-AEEA-γGlu-C18 diacid])QILLKQERQKKEREQAETNKQILAQV-NH2
modifications: N-terminus assumed
SMILES: CC[C@H](C)[C@H](N)C(=O)N[C@H](C(=O)N[C@@H](CC(C)C)C(=O)N[C@@H](CO)C(=O)N[C@@H](CC(C)C)C(=O)N[C@@H](CC(=O)O)C(=O)N[C@H](C(=O)N1CCC[C@H]1C(=O)N[C@H](C(=O)N[C@@H](CCCCN)C(=O)N[C@@H](CC(C)C)C(=O)N[C@@H](CCCCNC(=O)COCCOCCNC(=O)COCCOCCNC(=O)CC[C@H](NC(=O)CCCCCCCCCCCCCCCCC(=O)O)C(=O)O)C(=O)N[C@@H](CCC(N)=O)C(=O)N[C@H](C(=O)N[C@@H](CC(C)C)C(=O)N[C@@H](CC(C)C)C(=O)N[C@@H](CCCCN)C(=O)N[C@@H](CCC(N)=O)C(=O)N[C@@H](CCC(=O)O)C(=O)N[C@@H](CCCNC(=N)N)C(=O)N[C@@H](CCC(N)=O)C(=O)N[C@@H](CCCCN)C(=O)N[C@@H](CCCCN)C(=O)N[C@@H](CCC(=O)O)C(=O)N[C@@H](CCCNC(=N)N)C(=O)N[C@@H](CCC(=O)O)C(=O)N[C@@H](CCC(N)=O)C(=O)N[C@@H](C)C(=O)N[C@@H](CCC(=O)O)C(=O)N[C@H](C(=O)N[C@@H](CC(N)=O)C(=O)N[C@@H](CCCCN)C(=O)N[C@@H](CCC(N)=O)C(=O)N[C@H](C(=O)N[C@@H](CC(C)C)C(=O)N[C@@H](C)C(=O)N[C@@H](CCC(N)=O)C(=O)N[C@H](C(N)=O)C(C)C)[C@@H](C)CC)[C@@H](C)O)[C@@H](C)CC)[C@@H](C)CC)C(C)C)C(C)C
B5: peptide of SEQ ID NO: 102 (peptide)
peptide: IVLSLD[dV]PIKLK([AEEA-AEEA-γGlu-C18 diacid])QILLKQERQKKQREQAETNKQILAQV-NH2
modifications: N-terminus assumed
SMILES: CC[C@H](C)[C@H](N)C(=O)N[C@H](C(=O)N[C@@H](CC(C)C)C(=O)N[C@@H](CO)C(=O)N[C@@H](CC(C)C)C(=O)N[C@@H](CC(=O)O)C(=O)N[C@@H](C(=O)N1CCC[C@H]1C(=O)N[C@H](C(=O)N[C@@H](CCCCN)C(=O)N[C@@H](CC(C)C)C(=O)N[C@@H](CCCCNC(=O)COCCOCCNC(=O)COCCOCCNC(=O)CC[C@H](NC(=O)CCCCCCCCCCCCCCCCC(=O)O)C(=O)O)C(=O)N[C@@H](CCC(N)=O)C(=O)N[C@H](C(=O)N[C@@H](CC(C)C)C(=O)N[C@@H](CC(C)C)C(=O)N[C@@H](CCCCN)C(=O)N[C@@H](CCC(N)=O)C(=O)N[C@@H](CCC(=O)O)C(=O)N[C@@H](CCCNC(=N)N)C(=O)N[C@@H](CCC(N)=O)C(=O)N[C@@H](CCCCN)C(=O)N[C@@H](CCCCN)C(=O)N[C@@H](CCC(N)=O)C(=O)N[C@@H](CCCNC(=N)N)C(=O)N[C@@H](CCC(=O)O)C(=O)N[C@@H](CCC(N)=O)C(=O)N[C@@H](C)C(=O)N[C@@H](CCC(=O)O)C(=O)N[C@H](C(=O)N[C@@H](CC(N)=O)C(=O)N[C@@H](CCCCN)C(=O)N[C@@H](CCC(N)=O)C(=O)N[C@H](C(=O)N[C@@H](CC(C)C)C(=O)N[C@@H](C)C(=O)N[C@@H](CCC(N)=O)C(=O)N[C@H](C(N)=O)C(C)C)[C@@H](C)CC)[C@@H](C)O)[C@@H](C)CC)[C@@H](C)CC)C(C)C)C(C)C
B6: peptide of SEQ ID NO: 103 (peptide)
peptide: IVLSLDVPIKLK([AEEA-AEEA-γGlu-C18 diacid])QILLEQERQK[Aib]QREQAETNKQILAQV-NH2
modifications: N-terminus assumed
SMILES: CC[C@H](C)[C@H](N)C(=O)N[C@H](C(=O)N[C@@H](CC(C)C)C(=O)N[C@@H](CO)C(=O)N[C@@H](CC(C)C)C(=O)N[C@@H](CC(=O)O)C(=O)N[C@H](C(=O)N1CCC[C@H]1C(=O)N[C@H](C(=O)N[C@@H](CCCCN)C(=O)N[C@@H](CC(C)C)C(=O)N[C@@H](CCCCNC(=O)COCCOCCNC(=O)COCCOCCNC(=O)CC[C@H](NC(=O)CCCCCCCCCCCCCCCCC(=O)O)C(=O)O)C(=O)N[C@@H](CCC(N)=O)C(=O)N[C@H](C(=O)N[C@@H](CC(C)C)C(=O)N[C@@H](CC(C)C)C(=O)N[C@@H](CCC(=O)O)C(=O)N[C@@H](CCC(N)=O)C(=O)N[C@@H](CCC(=O)O)C(=O)N[C@@H](CCCNC(=N)N)C(=O)N[C@@H](CCC(N)=O)C(=O)N[C@@H](CCCCN)C(=O)NC(C)(C)C(=O)N[C@@H](CCC(N)=O)C(=O)N[C@@H](CCCNC(=N)N)C(=O)N[C@@H](CCC(=O)O)C(=O)N[C@@H](CCC(N)=O)C(=O)N[C@@H](C)C(=O)N[C@@H](CCC(=O)O)C(=O)N[C@H](C(=O)N[C@@H](CC(N)=O)C(=O)N[C@@H](CCCCN)C(=O)N[C@@H](CCC(N)=O)C(=O)N[C@H](C(=O)N[C@@H](CC(C)C)C(=O)N[C@@H](C)C(=O)N[C@@H](CCC(N)=O)C(=O)N[C@H](C(N)=O)C(C)C)[C@@H](C)CC)[C@@H](C)O)[C@@H](C)CC)[C@@H](C)CC)C(C)C)C(C)C

Biological target: T1, CRF1R receptor (anti-target)
Assay: cell-based or functional assay

Binder | EC50 [nM] 0% HSA (cAMP, HTRF) [nM] | Emax (%) (100% = Sauvagine at 100 nM)
B1 | > 100 | 3.7
B2 | > 100 | 14.5
B3 | > 100 | 2.3
B4 | > 100 | 2.3
B5 | > 100 | 9
B6 | > 100 | 14
